The target of test [1] is HBsAg-gp120 hybrid virus-like particles, gp120 89.6 with loop C deletion (424-432 …, beta 20-21 loop) (hepatitis B virus; HIV-1 strain 89.6). Briefly: ELISA, half maximal binding compared, gp120-HBsAg particles coated on the plate. For orientation: An ELISA detects its analyte on a solid surface through an enzyme-linked reagent.
Test [2] shares this target. As to the kind of experiment: ELISA, gp120-HBsAg particles coated on the plate.
Test [3] shares this target. As to the kind of experiment: ELISA, gp120-HBsAg particles coated on the plate; mean of six experiments.

The results in this text go back to patent US20100215682A1.

monoclonal F105 (antibody): the shift in apparent affinity relative to 89.6 wild type in test [1] is over 100 fold. This substance also returned a fold increase of binding against 89.6 wild type in test [2] of over 10 fold. The fold increase of ELISA peak OD against 89.6 wild type in test [3] stood at 7.1 fold.

As for monoclonal IgG1 b12 (antibody), in test [2], the fold increase of binding against 89.6 wild type came to 3 fold and the peak OD as percent of the IIIB value (% of the IIIB value) fell in the range of 80 to 100. In test [3], this substance yielded a fold increase of ELISA peak OD against 89.6 wild type of 2.6 fold.
